{"source": "patent US12312397B2", "about": "“Anti-O2 antibodies and uses thereof” (priority 2016, dated 2025)", "molecules": {"B1": {"name": "KPN179: Class III anti-O2 antigen human mAb; VH SEQ ID NO: 53, VL SEQ ID NO: 54 (antibody, V domains shown)", "VH": "EVQVVESGGGLVKPGGSLRLSCAASGFTFNNAWMNWVRQAPGKGLEWVGRIKRKADGETTDYPASVKGRFTVSRDDSKNTIYLQMNSLKTEDTAIYYCTTRIVTTNDYWGQGTLVTVSS", "VL": "QSALTQPPSVSGSPGQSVTISCTGTSSDVGYYDYVSWYQQHHPGKAPKHMIYDVNKRPSGVPDRFSGSKSGNTASLTISGLQAEDEADYYCCSYAGGDTFVFGTGTKVTVL", "modifications": "Description of Artificial Sequence: SyntheticKPN179 VH polypeptide; Description of Artificial Sequence: SyntheticKPN179 VL polypeptide"}}, "key": {"KPC strain Kp977778_O2": {"test_system": "KPC strain Kp977778_O2", "experiment": "Lethal pneumonia model, KPC strain Kp977778_O2", "assay_type": "in vivo, Klebsiella pneumoniae", "conditions": "C57/BL6 mice, 3e8 CFU; mAb 2 mg/kg 1 hour post infection; survival", "protocol": "(§1) C57/BL6 mice were obtained from Jackson Laboratories and maintained in a special pathogen-free facility. All animal experiments were conducted in accordance with Institutional Animal Care and Use Committee (IACUC) protocol and guidance. K. pneumoniae strains were grown on agar plates overnight and diluted in saline at proper concentration. The inoculum titer was determined by plating a serial dilution of bacteria onto agar plates prior to and post challenge. In acute pneumonia models, C57/BL6 mice were inoculated with 1e4 to 2e8 colony-forming units (CFU) of K. pneumoniae clinical isolates in 50 μl saline intranasally. Anti-K pneumoniae monoclonal antibodies (mAbs) and human IgG1 control antibodies were given 1-24 hour post bacterial challenge (therapeutic dosing). Mouse survival was monitored daily until up to day 8. Survival data of representative experiments were plotted in Graphpad Prism software.\nMice were challenged with 2e8 CFU of Klebsiella pneumoniae Carbanpenemase (KPC) strain Kp961842_O2 or with 3e8 CFU of KPC strain Kp977778_O2, followed by the administration of anti-O2 mAbs. When administered at a concentration of 2 mg/kg 1 hour post bacterial infection, Class III anti-O2 LPS mAbs KPN42, KPN179-IgG1, and KPS44v2017 protected mice from lethal bacterial challenge with the multi-drug resistant KPC strains Kp961842_O2 (FIG. 6, left panel, and FIG. 10) and Kp977778_O2 (FIG. 6B, right panel)."}, "O2 LPS": {"test_system": "O2 LPS", "experiment": "ELISA binding to O2 LPS", "set-up": "species or system Klebsiella pneumoniae", "conditions": "secondary screening, ELISA", "how_it_was_run": "(§2)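 Serial dilutions of monoclonal antibodies bound to LPS-coated plates for 1 h at room temperature, detected with alkaline phosphatase-conjugated anti-human IgG (1 h) and pNPP substrate (30 min). Absorbance read at 405 nm; EC50 values derived from binding curves.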"}, "O1 LPS": {"test_system": "O1 LPS", "experiment": "ELISA binding to O1 LPS", "set-up": "species or system Klebsiella pneumoniae", "conditions": "secondary screening", "how_it_was_run": "as §2"}, "[1]": {"test_system": "antibiotic resistant Klebsiella pneumoniae strains", "assay_type": "in vivo", "protocol": "as §1\nThe lethal pneumonia model as described in Example 9 was used to assess the activity of anti-O2 LPS antibodies in combination with an antibiotic. Both antibiotic and antibody were administered 1 hour after bacterial infection.\n50 mg/kg of meropenem and 2 mg/kg of antibody were administered at 1, 2, 4, 6, and 24 hour after bacterial infection, as described for the antibody and antibiotic combination studies in Examples 9 and 10."}, "[2]": {"test_system": "K. pneumoniae 8570ΔcpsBLux (O2)", "experiment": "Opsonophagocytic killing (OPK) assay, O2 capsule mutant", "assay_type": "cell-based, Klebsiella pneumoniae", "set-up": "key to D Capsule OPK O2: +++: Strongly positive activity; +: Positive activity; +/−: Somewhat positive depending upon the test conditions", "conditions": "capsule mutant strain 8570ΔcpsB lux (O2)", "how_it_was_run": "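Luminescent capsule-deficient K. pneumoniae strains were mixed with DMF-differentiated HL-60 cells, 1:10 baby rabbit serum and anti-O2 LPS mAbs (2 ng–2.5 μg/mL), then shaken for 2 h at 37 °C. Killing % came from luminescence (RLU) against no-antibody and negative-control mAb wells, with >40% scored as positive.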"}}, "data": [{"molecule": "B1", "values": [{"measurement": "protection from lethal bacterial challenge, Kp977778_O2", "setting": "KPC strain Kp977778_O2", "value": "protected"}, {"measurement": "binding to LPS-O2", "setting": "O2 LPS", "value": "bind"}, {"measurement": "binding to LPS-O1", "setting": "O1 LPS", "value": "bind"}, {"measurement": "time post infection up to which combination with meropenem protects better than control mAb and meropenem", "setting": "[1]; 50 mg/kg meropenem + 2 mg/kg antibody given 1, 2, 4, 6, 24 hour after infection, mice", "value": "up to 4 hours"}, {"measurement": "protection of combination with meropenem compared to antibody or antibiotic monotherapy", "setting": "[1]; meropenem 50 mpk + antibody 0.2 mpk, both 1 hour after infection, mice", "value": "significantly improved protection"}, {"measurement": "synergy with meropenem in lethal pneumonia model", "setting": "[1]; sub-therapeutic antibody dose, % survival of mice", "value": "strong synergy"}, {"measurement": "D Capsule OPK O2", "setting": "[2]", "value": "+++"}]}]}
